Assay results: US20250026827A1 (Alector, published 2025)

Columns and labels:
[1] = target: T1, human SIRPβ1 domain 1 (D1) Fc fusion (human, UniProt O00241 30-148); experiment: Octet, Fab monovalent
T1 construct: Made in HEK293/T cells with a heterologous signal peptide; also called Human SIRPβ1 D1-Fc; Human SIRPβ1-Fc; not shown: C-terminal human IgG1 Fc

[2] = target: T1, human SIRPβ1 domain 1 (D1) Fc fusion; experiment: Octet, IgG avid
mouse SIRPα D1-Fc = target: T2, mouse SIRPα D1-Fc (mouse, UniProt P97797 32-150, limits assumed); experiment: Octet
T2 construct: domain: D1
T2 sequence (looked up): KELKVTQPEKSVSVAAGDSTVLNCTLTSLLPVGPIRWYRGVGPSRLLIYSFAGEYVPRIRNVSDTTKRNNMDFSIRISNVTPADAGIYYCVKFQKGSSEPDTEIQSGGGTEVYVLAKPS
Method: Briefly, Octet affinity measurements were performed by loading IgGs on-line onto AHQ sensors. Sensors were equilibrated off-line in assay buffer for 30 min and then monitored on-line for 60 seconds for baseline establishment. For avid binding measurement, sensors with loaded IgGs were exposed to 100 nM antigen (human SIRPα domain 1 (D1) Fc fusion or SIRPβ1 domain 1 (D1) Fc fusion) for 3 min, and then transferred to assay buffer for 3 min for off-rate measurement. Additional avid binding was determined by loading biotinylated SIRPβ1 monomer on SA sensors and exposing to 100 nM IgG in solution. Monovalent binding measurements were obtained by loading human SIRPα- or SIRPβ1-Fc fusion antigens onto AHQ sensor, followed by exposure to 100 nM anti-SIRPβ1 antibody Fab. Additional monovalent measurements were made by loading biotinylated human SIRPα or SIRPβ1 monomer to SA sensor followed by exposure to 100 nM Fab in solution. Kinetics data were fit using a 1:1 binding model in the data analysis software provided by ForteBio (ForteBio Data Analysis Software 7.0).

[3] = target: T3, human SIRPα domain 1 (D1) Fc fusion (human, UniProt P78324 32-149); experiment: Octet
T3 construct: also called human SIRPα D1-Fc; Human SIRPα Fc; not shown: C-terminal human IgG1 Fc

[4] = target: T4, mouse SIRPβ1 on CHO cells (mouse); experiment: flow cytometry;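 as to FOB: antibodies tested at 1 µg/ml for 30 min on ice against receptor-expressing cells, detected with a PE-labelled secondary antibody, read as mean fluorescence intensity relative to background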
T4 construct: Whole entry
T4 chain: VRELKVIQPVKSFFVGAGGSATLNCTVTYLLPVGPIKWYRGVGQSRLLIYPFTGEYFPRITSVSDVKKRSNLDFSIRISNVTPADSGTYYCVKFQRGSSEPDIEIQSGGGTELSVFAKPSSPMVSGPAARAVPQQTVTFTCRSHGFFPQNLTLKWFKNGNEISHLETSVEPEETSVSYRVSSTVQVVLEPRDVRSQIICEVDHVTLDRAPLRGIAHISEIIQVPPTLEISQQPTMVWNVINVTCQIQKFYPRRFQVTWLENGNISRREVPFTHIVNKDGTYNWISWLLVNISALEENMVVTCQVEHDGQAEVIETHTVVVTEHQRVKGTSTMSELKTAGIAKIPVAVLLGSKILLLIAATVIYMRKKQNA

mouse SIRPα on cells [5] = target: T5, mouse SIRPα on cells (mouse, UniProt P97797 32-513); experiment: flow cytometry;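 as to FOB: antibodies tested at 1 µg/ml for 30 min on ice against receptor-expressing cells, detected with a PE-labelled secondary antibody, read as mean fluorescence intensity relative to background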
T5 construct: whole, on cells
T5 sequence (looked up): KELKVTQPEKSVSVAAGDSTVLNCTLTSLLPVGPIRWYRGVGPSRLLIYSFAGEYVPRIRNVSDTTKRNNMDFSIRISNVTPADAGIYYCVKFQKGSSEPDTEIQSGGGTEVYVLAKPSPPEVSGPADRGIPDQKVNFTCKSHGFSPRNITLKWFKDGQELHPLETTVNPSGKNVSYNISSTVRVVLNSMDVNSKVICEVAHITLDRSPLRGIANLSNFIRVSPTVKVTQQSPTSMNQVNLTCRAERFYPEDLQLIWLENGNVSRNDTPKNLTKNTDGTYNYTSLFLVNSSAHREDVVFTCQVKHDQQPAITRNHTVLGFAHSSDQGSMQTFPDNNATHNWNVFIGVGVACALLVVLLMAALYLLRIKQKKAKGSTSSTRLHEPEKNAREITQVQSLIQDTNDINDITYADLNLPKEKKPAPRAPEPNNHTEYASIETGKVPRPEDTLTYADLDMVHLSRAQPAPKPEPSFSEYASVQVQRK

human SIRPα on cells [6] = target: T6, human SIRPα on cells (human, UniProt P78324 31-504); experiment: flow cytometry;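 as to FOB: antibodies tested at 1 µg/ml for 30 min on ice against receptor-expressing cells, detected with a PE-labelled secondary antibody, read as mean fluorescence intensity relative to background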
T6 construct: Whole entry

[7] = target: T4, mouse SIRPβ1 on CHO cells; experiment: flow cytometry;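 as to FOB: antibodies tested at 1 µg/ml for 30 min on ice against receptor-expressing cells, detected with a PE-labelled secondary antibody, read as mean fluorescence intensity relative to background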
mouse SIRPα on cells [8] = target: T5, mouse SIRPα on cells; experiment: flow cytometry; remark: listed apart in the source
[9] = target: T7, human SIRPβ1 isoform 1 on cells (human, UniProt O00241 30-398); experiment: flow cytometry
T7 construct: On CHO cells (low level), on BWZ/BW5147.G.1.4 cells (reporter cells co-express human DAP12) or on primary human myeloid cells; also called huSIRPβ1; BWZ-huSIRPβ1
T7 sequence (O00241 30-398): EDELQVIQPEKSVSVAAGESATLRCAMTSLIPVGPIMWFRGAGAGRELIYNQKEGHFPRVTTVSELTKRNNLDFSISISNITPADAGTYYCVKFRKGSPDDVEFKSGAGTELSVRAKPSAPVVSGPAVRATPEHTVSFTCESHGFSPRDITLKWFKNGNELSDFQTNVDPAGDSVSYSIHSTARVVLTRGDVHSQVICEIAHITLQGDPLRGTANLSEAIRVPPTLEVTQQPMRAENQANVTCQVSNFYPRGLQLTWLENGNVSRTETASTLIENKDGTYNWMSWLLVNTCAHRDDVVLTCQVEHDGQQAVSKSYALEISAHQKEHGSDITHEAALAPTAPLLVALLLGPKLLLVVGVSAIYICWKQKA

human SIRPα on cells [10] = target: T6, human SIRPα on cells; experiment: flow cytometry; remark: listed apart in the source

T1 sequence (O00241 30-148 limits assumed): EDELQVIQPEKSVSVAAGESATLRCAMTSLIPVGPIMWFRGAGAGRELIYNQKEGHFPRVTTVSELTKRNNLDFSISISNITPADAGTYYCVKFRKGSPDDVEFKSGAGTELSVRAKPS

Binder	Kd [1] [nM]	further results
SB-1-2 Fab (Fab, V domains shown, Fab by papain digestion) VH: QVQLVESGGGVVQPGRSLRLSCAASGFTFGSFGMNWVRQAPGKGLEWVSAITASGGSTFYADSVKGRFTISRDNSKNTLYLQMNSLRAEDTAVYYCAKDFTEVVGWLGMDVWGQGTTVTVSS VL: EIVMTQSPGTLSLSPGERATLSCRASQSVSSSYLAWYQQKPGQAPRLLIYGASSRATGIPDRFSGSGSGTDFTLTISRLEPEDFAVYYCQLLGSSPRTFGGGTKVEIK	37.8	
SB-2-7 Fab (Fab, V domains shown, Fab by papain digestion) VH: EVQLLESGGGLVQPGGSLRLSCAASGFTFARYGMHWVRQAPGKGLEWVSAISGLAGPTYADSVKGRFTISRDNSKNTLYLQMNSLRAEDTAVYYCARDQTAAAAIWGMDVWGQGTTVTVSS VL: EVVLTQSPGTLSLSPGERATLSCRASQSVSSSYLAWYQQKPGQAPRLLIYGASSRATGIPDRFSGSGSGTDFTLTISRLEPEDFAVYYCQQSSSHPFTFGGGTKVEIK	6.21	
SB-2-10 Fab (Fab, V domains shown, Fab by papain digestion) VH: EVQLLESGGGLVQPGGSLRLSCAASGFTFGSYGMHWVRQAPGKGLEWVSAISGLAGQTYADSVKGRFTISRDNSKNTLYLQMNSLRAEDTAVYYCARDQTAAAAIWGMDVWGQGTTVTVSS VL: EIVLTQSPGTLSLSPGERATLSCRASQSVSSSYLAWYQQKPGQAPRLLIYGASSRATGIPDRFSGSGSGTDFTLTISRLEPEDFAVYYCQQSSSHPFTFGGGTKVEIK	12.3	
SB-1-5 Fab (Fab, V domains shown, Fab by papain digestion) VH: QVQLVESGGGVVQPGRSLRLSCAASGFTFSAYGMNWVRQAPGKGLEWVSAISASGRSTFYADSVKGRFTISRDNSKNTLYLQMNSLRAEDTAVYYCAKDFTEVVGWLGMDVWGQGTTVTVSS VL: EIVMTQSPGTLSLSPGERATLSCRASQSVSSSYLAWYQQKPGQAPRLLIYGASSRATGIPDRFSGSGSGTDFTLTISRLEPEDFAVYYCQLLGSSPRTFGGGTKVEIK	82.4	
SB-2-9 Fab (Fab, V domains shown, Fab by papain digestion) VH: QVQLVESGGGVVQPGRSLRLSCAASGFTFKTYGMHWVRQAPGKGLEWVAHIWYEGSNKVYADSVKGRFTISRDNSKNTLYLQMNSLRAEDTAVYYCARDQTAAAAIWGMDVWGQGTTVTVSS VL: EVVLTQSPGTLSLSPGERATLSCRASQSVSSSYLAWYQQKPGQAPRLLIYGASSRATGIPDRFSGSGSGTDFTLTISRLEPEDFAVYYCQQSSSHPFTFGGGTKVEIK	19.2	
SB-2-8 Fab (Fab, V domains shown, Fab by papain digestion) VH: QVQLVESGGGVVQPGRSLRLSCAASGFTFLDYGMHWVRQAPGKGLEWVSAISAFAGSTYADSVKGRFTISRDNSKNTLYLQMNSLRAEDTAVYYCARDQTAAAAIWGMDVWGQGTTVTVSS VL: EVVLTQSPGTLSLSPGERATLSCRASQSVSSSYLAWYQQKPGQAPRLLIYGASSRATGIPDRFSGSGSGTDFTLTISRLEPEDFAVYYCQQSSSHPFTFGGGTKVEIK	5.02	
SB-1-3 Fab (Fab, V domains shown, Fab by papain digestion) VH: EVQLVESGGGLVKPGGSLRLSCAASGFTFSAYGMNWVRQAPGKGLEWVSAITSSGRSTYYADSVKGRFTISRDNSKNTLYLQMNSLRAEDTAVYYCAKDFTEVVGWLGMDVWGQGTTVTVSS VL: EIVMTQSPGTLSLSPGERATLSCRASQSVSSSYLAWYQQKPGQAPRLLIYGASSRATGIPDRFSGSGSGTDFTLTISRLEPEDFAVYYCQLLGSSPRTFGGGTKVEIK	45.4	
SB-1-4 Fab (Fab, V domains shown, Fab by papain digestion) VH: QVQLVESGGGVVQPGGSLRLSCAASGFTFSAYGMNWVRQAPGKGLEWVSAIRASGGATYYADSVKGRFTISRDNSKNTLYLQMNSLRAEDTAVYYCAKDFTEVVGWLGMDVWGQGTTVTVSS VL: EIVMTQSPGTLSLSPGERATLSCRASQSVSSSYLAWYQQKPGQAPRLLIYGASSRATGIPDRFSGSGSGTDFTLTISRLEPEDFAVYYCQLLGSSPRTFGGGTKVEIK	43.3	
SB-2-11 Fab (Fab, V domains shown, Fab by papain digestion) VH: QVQLVESGGGLVQPGGSLRLSCAASGFTFARYGMHWVRQAPGKGLEWVSAISGLAGPTYADSVKGRFTISRDNSKNTLYLQMNSLRAEDTAVYYCARDQTAAWGIWGMDVWGQGTTVTVSS VL: EIVLTQSPGTLSLSPGERATLSCRASQSVSSSYLAWYQQKPGQAPRLLIYGASSRATGIPDRFSGSGSGTDFTLTISRLEPEDFAVYYCQQSSSHPFTFGGGTKVEIK	4.4	
SB-48 (antibody, V domains shown, IgG) VH: QVQLVESGGGVVQPGRSLRLSCAASGFTFSSYGMHWVRQAPGKGLEWVAVISYDGSNKYYADSVKGRFTISRDNSKNTLYLQMNSLRAEDTAVYYCARDGTIAAAGWPPEYFQHWGQGTLVTVSS VL: DIQMTQSPSSVSASVGDRVTITCRASQGIDSWLAWYQQKPGKAPKLLIYAASSLQSGVPSRFSGSGSGTDFTLTISSLQPEDFATYYCQQASNFPITFGGGTKVEIK		Kd [2]: 27.7 nM; binding result (mouse SIRPα D1-Fc): no binding (tested: 100 nM); binding result [3]: no binding (tested: 100 nM); binding result [4]: no binding (tested: 1 ug/ml); binding result (mouse SIRPα on cells [5]): no binding (tested: 1 ug/ml); binding result (human SIRPα on cells [6]): no binding (tested: 1 ug/ml); FOB [7]: 1.1 fold over background; FOB (mouse SIRPα on cells [8]): 2.4 fold over background; FOB [9]: 1.7 fold over background; FOB (human SIRPα on cells [10]): 2.1 fold over background
SB-40-18 Fab (Fab, V domains shown, Fab by papain digestion) VH: QVQLVQSGAEVKKPGASVKVSCKASGYTFTSYYMAWVRQAPGQRLEWMGWINPAVGATIYSQKFQGRVTITRDTSASTAYMELSSLRSEDTAVYYCARDTGEYSYSPHGMDVWGQGTTVTVSS VL: EIVLTQSPATLSLSPGERATLSCRASQSVSSYLAWYQQKPGQAPRLLIYDSSNRATGIPARFSGSGSGTDFTLTISSLEPEDFAVYYCQQRDEHPPWTFGGGTKVEIK	18.1	
SB-40-19 Fab (Fab, V domains shown, Fab by papain digestion) VH: QVQLVQSGAEVKKPGASVKVSCKASGYTFTSYYMVWVRQAPGQGLEWMGIINPSSGATNYAQKFQGRVTMTTDTSTSTAYMELRSLRSDDTAVYYCARDTGEYSYSPHGMDVWGQGTTVTVSS VL: EIVLTQSPATLSLSPGERATLSCRASQSVSSYLAWYQQKPGQAPRLLIYDSSNRATGIPARFSGSGSGTDFTLTISSLEPEDFAVYYCQQRDEHPPWTFGGGTKVEIK	44.8	
SB-40-21 Fab (Fab, V domains shown, Fab by papain digestion) VH: QVQLVQSGAEVKKPGASVKVSCKASGYTFTSYYMVWVRQAPGQGLEWMGIINPSSGDTNYAQKFQGRVTMTRDTSISTAYMELSRLRSDDTAVYYCARDTGEYSYSPHGMDVWGQGTTVTVSS VL: EIVLTQSPATLSLSPGERATLSCRASQSVSSYLAWYQQKPGQAPRLLIYDSSNRATGIPARFSGSGSGTDFTLTISSLEPEDFAVYYCQQRDEHPPWTFGGGTKVEIK	40.4	
SB-40-20 Fab (Fab, V domains shown, Fab by papain digestion) VH: QVQLVQSGAEVKKPGASVKVSCKASGYTFTSFYISWVRQAPGQGLEWMGIINPSSGHTNYAQKLQGRVTMTTDTSTSTAYMELSSLRSEDTAVYYCARDTGEYSYSPHGMDVWGQGTTVTVSS VL: EIVLTQSPATLSLSPGERATLSCRASQSVSSYLAWYQQKPGQAPRLLIYDSSNRATGIPARFSGSGSGTDFTLTISSLEPEDFAVYYCQQRDEHPPWTFGGGTKVEIK	9.41	
